# Measurements taken from PMC9157124 (Plant Physiology, 2022).
# Target: N-terminal FLAG-tagged D1 (FLAG-D1) (Synechocystis sp. PCC 6803, UniProt P16033 1-344)
# Assay: co-IP
binder,measurement,value
"Ycf48 assembly factor (natural protein, Synechocystis sp. PCC 6803 (endogenous), UniProt P73069 29-342, looked up) CSHVPDLAFNPWQEIALETDSTFADIAFTEDPNHGWLVGTKETIFETTDGGDTWEQKLIDLGEEKASFSAVSFSGNEGWITGKPSILLHTTDGGQTWARIPLSEKLPGAPYSIIALGPQTAEMITDLGAIYKTTNGGKNWKALVEGAVGVARTIQRSTDGRYVAVSARGNFYSTWAPGQTEWTPHNRNSSRRLQTMGYGKDGQLWLLARGGQLQFSTDPDAEEWSDVIAPQDKGSWGLLDLSFRTPEEVWVAGASGNLLMSQDGGQTWAKDTGVEDIPANLYRVVFLSPEKGFVLGQDGILLKYNPSTEVAMVP",stoichiometry N,~1
